Consider one substance from patent US20260022175A1.

Holding throughout (assay): SPR Biacore 8k+ 25C, antibody captured, FcγR analyte; mean
(SPR reads the build-up and loss of mass on a sensor chip optically.)

The target in assay [1] is human FcγRIIIa(F) extracellular domain with C-terminal His tag (human) (UniProt P08637).
The target in assay [2] is cynomolgus monkey FcγRIIb extracellular domain with His tag (cynomolgus monkey).
The target of assay [3] is cynomolgus monkey FcγRIIIa(S) extracellular domain with His tag (cynomolgus monkey) (UniProt Q8SPW2).
cynomolgus monkey FcγRIIIa(S) extracellular domain with His tag (cynomolgus monkey), sequence (Q8SPW2 other isoform, or with tags, fused parts or gaps): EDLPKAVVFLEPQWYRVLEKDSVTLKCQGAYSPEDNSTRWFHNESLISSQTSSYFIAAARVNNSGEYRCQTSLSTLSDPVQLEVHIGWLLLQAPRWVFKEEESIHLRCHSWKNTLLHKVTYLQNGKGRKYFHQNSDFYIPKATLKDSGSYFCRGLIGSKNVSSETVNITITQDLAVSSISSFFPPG
Assay [4] addresses human FcγRIIa(R) extracellular domain with C-terminal His tag (human) (UniProt P12318).
Assay [5] has as its target cynomolgus monkey FcγRIIIa(R) extracellular domain with His tag (cynomolgus monkey) (UniProt Q8SPW2).
Assay [6] concerns the target cynomolgus monkey FcγRIIa3 extracellular domain with His tag (cynomolgus monkey).
The target in assay [7] is human FcγRIIb extracellular domain with C-terminal His tag (human) (UniProt P31994).
human FcγRIIb extracellular domain with C-terminal His tag (human), sequence (P31994 other isoform, or with tags, fused parts or gaps): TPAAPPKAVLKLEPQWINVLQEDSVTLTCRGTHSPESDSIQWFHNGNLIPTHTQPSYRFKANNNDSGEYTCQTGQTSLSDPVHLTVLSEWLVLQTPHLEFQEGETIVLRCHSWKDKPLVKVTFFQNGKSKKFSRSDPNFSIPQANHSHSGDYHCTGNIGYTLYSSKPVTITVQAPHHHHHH
In assay [8] the target is cynomolgus monkey FcγRIIa2 extracellular domain with His tag (cynomolgus monkey).
cynomolgus monkey FcγRIIa2 extracellular domain with His tag (cynomolgus monkey), sequence (chain, as listed by the source): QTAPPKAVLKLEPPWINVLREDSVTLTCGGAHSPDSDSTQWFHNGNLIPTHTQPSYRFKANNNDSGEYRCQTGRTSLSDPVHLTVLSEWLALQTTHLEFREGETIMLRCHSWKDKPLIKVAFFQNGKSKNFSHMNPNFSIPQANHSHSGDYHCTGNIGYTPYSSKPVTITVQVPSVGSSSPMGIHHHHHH
The target in assay [9] is human FcγRIIIa(V) extracellular domain with C-terminal His tag (human) (UniProt P08637).
human FcγRIIIa(V) extracellular domain with C-terminal His tag (human), sequence (P08637 other isoform, or with tags, fused parts or gaps): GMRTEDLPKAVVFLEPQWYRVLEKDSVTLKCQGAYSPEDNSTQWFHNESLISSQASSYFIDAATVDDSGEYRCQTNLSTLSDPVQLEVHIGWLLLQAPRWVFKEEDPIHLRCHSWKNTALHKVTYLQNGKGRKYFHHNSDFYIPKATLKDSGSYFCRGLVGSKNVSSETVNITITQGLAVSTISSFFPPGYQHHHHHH
The target in assay [10] is cynomolgus monkey FcγRIIa1 extracellular domain with His tag (cynomolgus monkey).
cynomolgus monkey FcγRIIa1 extracellular domain with His tag (cynomolgus monkey), sequence (chain, as listed by the source): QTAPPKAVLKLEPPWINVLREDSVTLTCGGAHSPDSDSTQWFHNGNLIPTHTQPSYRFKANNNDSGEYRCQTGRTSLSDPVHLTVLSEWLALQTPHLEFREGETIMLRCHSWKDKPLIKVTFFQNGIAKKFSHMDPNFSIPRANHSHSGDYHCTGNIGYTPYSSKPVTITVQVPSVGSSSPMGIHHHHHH
Assay [11] addresses human FcγRIIa(H) extracellular domain with C-terminal His tag (human) (UniProt P12318).
Assay [12] has as its target human FcγRIa extracellular domain with C-terminal His tag (human) (UniProt P12314).
For assay [13], the target named is cynomolgus monkey FcγRIa extracellular domain with His tag (cynomolgus monkey).
cynomolgus monkey FcγRIa extracellular domain with His tag (cynomolgus monkey), sequence (P12314 other isoform, or with tags, fused parts or gaps): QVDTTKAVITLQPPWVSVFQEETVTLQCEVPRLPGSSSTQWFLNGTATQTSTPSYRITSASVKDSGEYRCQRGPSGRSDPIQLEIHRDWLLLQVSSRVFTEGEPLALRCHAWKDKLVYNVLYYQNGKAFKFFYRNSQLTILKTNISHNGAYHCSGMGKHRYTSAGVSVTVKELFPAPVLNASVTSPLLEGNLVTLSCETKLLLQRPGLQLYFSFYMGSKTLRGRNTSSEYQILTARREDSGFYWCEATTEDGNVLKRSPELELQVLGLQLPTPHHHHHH

cynomolgus monkey FcγRIIa3 extracellular domain with His tag (cynomolgus monkey), sequence (chain, as listed by the source): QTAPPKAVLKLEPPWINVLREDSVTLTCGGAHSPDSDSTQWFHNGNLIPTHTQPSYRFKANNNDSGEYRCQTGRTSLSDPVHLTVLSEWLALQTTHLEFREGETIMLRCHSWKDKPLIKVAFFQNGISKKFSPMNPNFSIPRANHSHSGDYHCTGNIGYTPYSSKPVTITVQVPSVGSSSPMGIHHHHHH
human FcγRIIa(H) extracellular domain with C-terminal His tag (human), sequence (P12318 34-217): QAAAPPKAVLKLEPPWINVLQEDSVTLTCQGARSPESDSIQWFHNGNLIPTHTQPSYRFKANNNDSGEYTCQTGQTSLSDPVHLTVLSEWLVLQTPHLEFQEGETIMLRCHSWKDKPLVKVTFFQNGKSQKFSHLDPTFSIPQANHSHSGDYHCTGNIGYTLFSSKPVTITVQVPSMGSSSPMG
human FcγRIIa(R) extracellular domain with C-terminal His tag (human), sequence (P12318 34-217 H167R): as the sequence (P12318 34-217) above, with H134R counted along it
human FcγRIIIa(F) extracellular domain with C-terminal His tag (human), sequence (P08637 other isoform, or with tags, fused parts or gaps): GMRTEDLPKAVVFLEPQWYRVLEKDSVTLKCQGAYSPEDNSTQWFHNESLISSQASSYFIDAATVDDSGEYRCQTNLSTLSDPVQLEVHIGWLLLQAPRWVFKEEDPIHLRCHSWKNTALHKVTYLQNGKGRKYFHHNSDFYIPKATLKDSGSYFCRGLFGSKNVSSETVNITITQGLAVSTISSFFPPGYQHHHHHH
human FcγRIa extracellular domain with C-terminal His tag (human), sequence (P12314 other isoform, or with tags, fused parts or gaps): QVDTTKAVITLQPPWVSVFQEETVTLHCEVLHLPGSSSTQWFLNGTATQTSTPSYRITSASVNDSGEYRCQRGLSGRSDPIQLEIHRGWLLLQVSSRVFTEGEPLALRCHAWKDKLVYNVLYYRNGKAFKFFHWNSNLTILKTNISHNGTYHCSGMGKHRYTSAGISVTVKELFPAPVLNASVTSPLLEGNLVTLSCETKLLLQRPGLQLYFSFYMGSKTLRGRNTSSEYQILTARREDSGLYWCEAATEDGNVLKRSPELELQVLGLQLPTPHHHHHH
cynomolgus monkey FcγRIIIa(R) extracellular domain with His tag (cynomolgus monkey), sequence (Q8SPW2 other isoform, or with tags, fused parts or gaps): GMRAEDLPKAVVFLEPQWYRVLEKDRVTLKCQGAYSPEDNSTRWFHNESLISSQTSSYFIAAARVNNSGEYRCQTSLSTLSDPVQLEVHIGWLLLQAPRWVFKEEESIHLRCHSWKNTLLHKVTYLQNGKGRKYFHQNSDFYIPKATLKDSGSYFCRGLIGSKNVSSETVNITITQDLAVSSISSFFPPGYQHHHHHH
cynomolgus monkey FcγRIIb extracellular domain with His tag (cynomolgus monkey), sequence (chain, as listed by the source): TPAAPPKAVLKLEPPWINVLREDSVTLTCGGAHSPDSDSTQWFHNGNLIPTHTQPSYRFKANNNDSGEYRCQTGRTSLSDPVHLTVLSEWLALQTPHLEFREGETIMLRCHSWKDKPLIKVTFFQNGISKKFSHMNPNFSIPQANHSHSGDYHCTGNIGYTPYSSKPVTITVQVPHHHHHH

For the substance “Tremfya (Janssen Pharmaceutical K.K) (antibody)”, the Kd in [1] is 9090 nM; in assay [2], 5670 nM; in [3], 497 nM; in assay [4] it was 1880 nM; in [5], 579 nM; in assay [6], 39800 nM. Further, the Kd was 16500 nM in assay [7]; 7530 nM in assay [8]; 1020 nM in assay [9]; 6800 nM in assay [10]; 1250 nM in assay [11]; 0.0908 nM in [12]. Further, in [13], the Kd stood at 0.0109 nM.

As usually defined, the Kd is the equilibrium constant for the complex coming apart.
